Laboratory results reported in patent US20230365662A1.
Positions count from the first letter of the chain named. In names and notes the source's numbering stands. Several values for one entry are separate records, joined by “and”; a condition that tells them apart may be missing. Equal entries are not always repeated.

Target: HRgpA-6H (Porphyromonas gingivalis) (UniProt P28784)
Experiment: ELISA, Fab FASEBA supernatant on coated HRgpA-6H (0.0625 ug/ml)

Chain of UniProt P28784 (P28784 228-991 limits assumed): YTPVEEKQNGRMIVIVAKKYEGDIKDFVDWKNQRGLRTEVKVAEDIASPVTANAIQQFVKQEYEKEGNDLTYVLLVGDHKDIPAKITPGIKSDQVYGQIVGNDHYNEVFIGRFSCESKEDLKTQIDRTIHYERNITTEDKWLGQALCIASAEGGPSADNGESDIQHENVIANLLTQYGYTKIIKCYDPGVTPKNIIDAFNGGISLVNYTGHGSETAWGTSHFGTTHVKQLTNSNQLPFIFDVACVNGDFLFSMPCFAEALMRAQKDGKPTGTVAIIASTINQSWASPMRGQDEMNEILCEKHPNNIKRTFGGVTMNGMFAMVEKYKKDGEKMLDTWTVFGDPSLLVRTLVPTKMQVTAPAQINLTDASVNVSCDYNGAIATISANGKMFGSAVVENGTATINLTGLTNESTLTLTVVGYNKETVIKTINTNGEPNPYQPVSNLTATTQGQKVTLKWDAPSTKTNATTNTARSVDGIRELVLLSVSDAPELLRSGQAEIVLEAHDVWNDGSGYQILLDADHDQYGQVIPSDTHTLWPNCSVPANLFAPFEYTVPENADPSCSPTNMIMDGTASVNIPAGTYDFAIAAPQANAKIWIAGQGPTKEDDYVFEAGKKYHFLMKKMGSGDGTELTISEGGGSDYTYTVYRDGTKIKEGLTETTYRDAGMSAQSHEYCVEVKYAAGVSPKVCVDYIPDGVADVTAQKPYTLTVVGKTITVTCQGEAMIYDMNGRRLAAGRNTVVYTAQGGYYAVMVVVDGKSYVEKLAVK

B1: KB001 parental mouse Fab VH variant S65Y (Fab, V domains shown)
VH: EVQLKQSGPGLVAPSQSLSITCTVSGFSLSIYSVHWVRQPPGKGLEWLGMIWGGGSSDYNSALKYRLSISKDNSKSQVFLKMNSLQTDDTAMYYCARNGNFYAMDYWGQGTSVTVSS
VL: QIVLTQSPAIMSASLGERVTMTCTASSSVSSSFLHWYQQKPGSSPQLWIYSTSNLASGVPARFSGSGSGTSYSLTISSMEAEDAATYYCHQYHHSPYIYTFGGGTKLEIK
OD450nm: 0.724 | Ratio OD(Variant)/OD(WT): 0.875

B2: KB001 parental mouse Fab VH variant N100S (Fab, V domains shown)
VH: B1 VH with Y65S, N100S
VL: B1 VL
OD450nm: 0.799 and 0.844 and 0.805 | Ratio OD(Variant)/OD(WT): 0.943 and 0.996 and 0.95

B3: KB001 parental mouse Fab VH variant S65P (Fab, V domains shown)
VH: B1 VH with Y65P
VL: B1 VL
OD450nm: 0.814 | Ratio OD(Variant)/OD(WT): 0.984

B4: KB001 parental mouse Fab VH variant N100Q (Fab, V domains shown)
VH: B1 VH with Y65S, N100Q
VL: B1 VL
OD450nm: 0.846 | Ratio OD(Variant)/OD(WT): 0.999

B5: KB001 parental mouse Fab VH variant N100A (Fab, V domains shown)
VH: B1 VH with Y65S, N100A
VL: B1 VL
OD450nm: 0.809 | Ratio OD(Variant)/OD(WT): 0.955

B6: KB001 parental mouse Fab VH variant G99F (Fab, V domains shown)
VH: B1 VH with Y65S, G99F
VL: B1 VL
OD450nm: 0.771 | Ratio OD(Variant)/OD(WT): 0.967

B7: KB001 parental mouse Fab VH variant S65F (Fab, V domains shown)
VH: B1 VH with Y65F
VL: B1 VL
OD450nm: 0.74 | Ratio OD(Variant)/OD(WT): 0.895

B8: KB001 parental mouse Fab VH variant N100K (Fab, V domains shown)
VH: B1 VH with Y65S, N100K
VL: B1 VL
OD450nm: 0.801 and 0.791 | Ratio OD(Variant)/OD(WT): 0.946 and 0.934

B9: KB001 parental mouse Fab VH variant S65L (Fab, V domains shown)
VH: B1 VH with Y65L
VL: B1 VL
OD450nm: 0.728 | Ratio OD(Variant)/OD(WT): 0.88

B10: KB001 parental mouse Fab VH variant N100E (Fab, V domains shown)
VH: B1 VH with Y65S, N100E
VL: B1 VL
OD450nm: 0.823 | Ratio OD(Variant)/OD(WT): 0.972

B11: KB001 parental mouse Fab VH variant S65T (Fab, V domains shown)
VH: B1 VH with Y65T
VL: B1 VL
OD450nm: 0.759 | Ratio OD(Variant)/OD(WT): 0.918

B12: KB001 parental mouse Fab VH variant N100G (Fab, V domains shown)
VH: B1 VH with Y65S, N100G
VL: B1 VL
OD450nm: 0.769 and 0.814 | Ratio OD(Variant)/OD(WT): 0.908 and 0.961

B13: KB001 parental mouse Fab VH variant N100P (Fab, V domains shown)
VH: B1 VH with Y65S, N100P
VL: B1 VL
OD450nm: 0.757 | Ratio OD(Variant)/OD(WT): 0.894

B14: KB001 parental mouse Fab VH variant N100T (Fab, V domains shown)
VH: B1 VH with Y65S, N100T
VL: B1 VL
OD450nm: 0.756 and 0.783 | Ratio OD(Variant)/OD(WT): 0.893 and 0.924

B15: KB001 parental mouse Fab VH variant F101W (Fab, V domains shown)
VH: B1 VH with Y65S, F101W
VL: B1 VL
OD450nm: 0.825 and 0.828 and 0.802 | Ratio OD(Variant)/OD(WT): 0.974 and 0.978 and 0.947

B16: KB001 parental mouse Fab VH variant F101S (Fab, V domains shown)
VH: B1 VH with Y65S, F101S
VL: B1 VL
OD450nm: 0.678 and 0.725 | Ratio OD(Variant)/OD(WT): 0.8 and 0.856

B17: KB001 parental mouse Fab VH variant S65G (Fab, V domains shown)
VH: B1 VH with Y65G
VL: B1 VL
OD450nm: 0.825 | Ratio OD(Variant)/OD(WT): 0.998

B18: KB001 parental mouse Fab VH variant N100L (Fab, V domains shown)
VH: B1 VH with Y65S, N100L
VL: B1 VL
OD450nm: 0.817 and 0.736 and 0.789 | Ratio OD(Variant)/OD(WT): 0.965 and 0.869 and 0.932

B19: KB001 parental mouse Fab VH variant F101M (Fab, V domains shown)
VH: B1 VH with Y65S, F101M
VL: B1 VL
OD450nm: 0.755 | Ratio OD(Variant)/OD(WT): 0.891

B20: KB001 parental mouse Fab VH variant N100R (Fab, V domains shown)
VH: B1 VH with Y65S, N100R
VL: B1 VL
OD450nm: 0.788 | Ratio OD(Variant)/OD(WT): 0.93

B21: KB001 parental mouse Fab VH variant N100Y (Fab, V domains shown)
VH: B1 VH with Y65S, N100Y
VL: B1 VL
OD450nm: 0.757 and 0.784 and 0.699 | Ratio OD(Variant)/OD(WT): 0.894 and 0.926 and 0.825

B22: KB001 parental mouse Fab VH variant G99N (Fab, V domains shown)
VH: B1 VH with Y65S, G99N
VL: B1 VL
OD450nm: 0.639 and 0.698 | Ratio OD(Variant)/OD(WT): 0.802 and 0.876

B23: KB001 parental mouse Fab VH variant G99S (Fab, V domains shown)
VH: B1 VH with Y65S, G99S
VL: B1 VL
OD450nm: 0.769 and 0.739 and 0.77 | Ratio OD(Variant)/OD(WT): 0.965 and 0.927 and 0.966

B24: KB001 parental mouse Fab VH variant G99A (Fab, V domains shown)
VH: B1 VH with Y65S, G99A
VL: B1 VL
OD450nm: 0.74 | Ratio OD(Variant)/OD(WT): 0.928

B25: KB001 parental mouse Fab VH variant N100F (Fab, V domains shown)
VH: B1 VH with Y65S, N100F
VL: B1 VL
OD450nm: 0.779 | Ratio OD(Variant)/OD(WT): 0.92

B26: KB001 parental mouse Fab VH variant S65R (Fab, V domains shown)
VH: B1 VH with Y65R
VL: B1 VL
OD450nm: 0.794 | Ratio OD(Variant)/OD(WT): 0.96

B27: KB001 parental mouse Fab VH variant N100I (Fab, V domains shown)
VH: B1 VH with Y65S, N100I
VL: B1 VL
OD450nm: 0.796 and 0.833 | Ratio OD(Variant)/OD(WT): 0.94 and 0.983

B28: KB001 parental mouse Fab VH variant G99Y (Fab, V domains shown)
VH: B1 VH with Y65S, G99Y
VL: B1 VL
OD450nm: 0.769 | Ratio OD(Variant)/OD(WT): 0.965

B29: KB001 parental mouse Fab VH variant G99C (Fab, V domains shown)
VH: B1 VH with Y65S, G99C
VL: B1 VL
OD450nm: 0.776 | Ratio OD(Variant)/OD(WT): 0.974

B30: KB001 parental mouse Fab VH variant N100C (Fab, V domains shown)
VH: B1 VH with Y65S, N100C
VL: B1 VL
OD450nm: 0.688 | Ratio OD(Variant)/OD(WT): 0.812
